The target of the assay is HydABCD unit of the synthetic Caldanaerobacter subterranus NADH-dependent [FeFe]-hydrogenase complex (with HydC^His) (Caldanaerobacter subterranus subsp. tengcongensis). In words: SEC-MALS; IMAC-purified enzyme on a MAbPac SEC-1 column, 50 mM Tris.HCl pH 7.5, 150 mM NaCl, 0.5 ml/min; peak fraction analysed by SDS-PAGE. (In gel filtration, larger molecules generally elute earlier.)

We go through one substance from paper PMC4694547.

Turning to “HydABCD unit of the synthetic Caldanaerobacter subterranus NADH-dependent [FeFe]-hydrogenase complex (with HydC^His)”, the stoichiometry N is 2.

Broadly, the stoichiometry N is a count of units in the complex or per binding partner.
